Reference: publication PMC11310380 (Cell reports, 2024)

Molecular target: the molecule itself
Experiment: cross-linking

B1: P9-hTTN3 (human Tentonin 3/TMEM150C with the P9 sequence at its N terminus) (natural protein, UniProt B9EJG8 1-249, looked up)
chain: MDGKKCSVWMFLPLVFTLFTSAGLWIVYFIAVEDDKILPLNSAERKPGVKHAPYISIAGDDPPASCVFSQVMNMAAFLALVVAVLRFIQLKPKVLNPWLNISGLVALCLASFGMTLLGNFQLTNDEEIHNVGTSLTFGFGTLTCWIQAALTLKVNIKNEGRRVGIPRVILSASITLCVVLYFILMAQSIHMYAARVQWGLVMCFLSYFGTFAVEFRHYRYEIVCSEYQENFLSFSESLSEASEYQTDQV
For B1, the “stoichiometry N” value was 4.
